Target: IGFIIR extracellular domain (domains 10-14; M6PR) (human, UniProt P11717 1510-2108)
Experiment: SPR

IGFIIR extracellular domain (domains 10-14; M6PR), sequence (P11717 1510-2108): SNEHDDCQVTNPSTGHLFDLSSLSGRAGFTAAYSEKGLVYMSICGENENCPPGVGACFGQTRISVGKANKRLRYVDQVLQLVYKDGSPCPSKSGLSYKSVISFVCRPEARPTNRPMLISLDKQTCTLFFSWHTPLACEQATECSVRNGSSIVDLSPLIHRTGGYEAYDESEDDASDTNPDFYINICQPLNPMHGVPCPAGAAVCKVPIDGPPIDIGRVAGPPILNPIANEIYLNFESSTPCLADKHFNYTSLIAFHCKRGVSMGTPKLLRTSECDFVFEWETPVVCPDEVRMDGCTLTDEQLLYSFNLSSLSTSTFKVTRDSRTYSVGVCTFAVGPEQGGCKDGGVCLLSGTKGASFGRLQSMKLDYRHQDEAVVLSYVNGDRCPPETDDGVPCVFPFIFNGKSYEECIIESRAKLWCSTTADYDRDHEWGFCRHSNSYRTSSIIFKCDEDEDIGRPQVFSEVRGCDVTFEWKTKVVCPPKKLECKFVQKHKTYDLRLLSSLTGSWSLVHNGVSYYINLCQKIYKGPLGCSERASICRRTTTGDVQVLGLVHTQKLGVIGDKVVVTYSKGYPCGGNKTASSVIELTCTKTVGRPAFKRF

B1: DNA aptamer-20 (structured_DNA)
DNA: GGGCGCGTAGATGACGAGCAGTCCTAACATCGTTTAGGAC
For B1, the Kd was 35.5 nM.

B2: RNA aptamer-20 (structured_RNA)
RNA: GGGCGCGUAGAUGACGAGCAGUCCUAACAUCGUUUAGGAC
Binder B2 has a Kd of 20 nM.

Reference: PMC5566100
